Test results published in PMC12339742.

Experiment: turbidity assay; turbidity at 600 nm against protein concentration; 20 mM Tris-HCl, 150 mM NaCl pH 8.0, 20% (w/v) PEG2k; 96-well plate, quadruplicate; self-assembly into condensates
Conditions: other: turbidity assay

| Substance | inflection of turbidity against protein concentration |
| --- | --- |
| Two serial repeats of the PduP EP and its native linker fused to the N-terminus of mNeonGreen | 15.5 µM |
| PduP encapsulation peptide with its native linker fused to the N-terminus of mNeonGreen | 33.1 µM ± 0.4 µM |
| Three serial repeats of the PduP EP and its native linker fused to the N-terminus of mNeonGreen | 19.7 µM |
